From the Human Domainome abundance scans (Beltran et al. 2025)
± gives the uncertainty stated by the source.

B1: Steroid hormone receptor ERR2, residues 100 to 176; numbered along this chain, O95718 (parent)
chain: KRLCLVCGDIASGYHYGVASCEACKAFFKRTIQGNIEYSCPATNECEITKRRRKSCQACRFMKCLKVGMLKEGVRLD

Variants of: B1
Experiment: abundance fitness (aPCA) (normalised: wild type 0, dead -1); higher = more abundant; growth selection in yeast, the domain comes from the species named
Conditions: Homo sapiens

| Variant | abundance fitness |
| --- | --- |
| KRLCLVCGDIASGYHYGVASCEACKAFFKRTIQGNIEYSCPATNECEITKRRRKSCQACRFMKCLKVDMLKEGVRLD | -0.267 ± 0.11 |
| KRLCLVCGDIASGYHYGVASCEACKAFFKRTIQGNIEYSCPATNECEITKRRRKSCQACRFMKCLKVTMLKEGVRLD | -0.849 ± 0.2 |
| KRLCLVCGDIASGYHYGVASCEACKAFFKRTIQGNIEYSCPATNECEITKRRRKSCQACRFMKCLKVPMLKEGVRLD | -0.894 ± 0.23 |
| KRLCLVCGDIASGYHYGVASCEACKAFFKRTIQGNIEYSCPATNECEITKRRRKSCQACRFMKCLKVWMLKEGVRLD | -0.806 ± 0.12 |
| KRLCLVCGDIASGYHYGVASCEACKAFFKRTIQGNIEYSCPATNECEITKRRRKSCQACRFMKCLKVRMLKEGVRLD | -0.903 ± 0.098 |
| KRLCLVCGDIASGYHYGVASCEACKAFFKRTIQGNIEYSCPATNECEITKRRRKSCQACRFMKCLKVSMLKEGVRLD | -0.954 ± 0.14 |
| KRLCLVCGDIASGYHYGVASCEACKAFFKRTIQGNIEYSCPATNECEITKRRRKSCQACRFMKCLKVHMLKEGVRLD | -0.657 ± 0.17 |
| KRLCLVCGDIASGYHYGVASCEACKAFFKRTIQGNIEYSCPATNECEITKRRRKSCQACRFMKCLKVCMLKEGVRLD | -0.808 ± 0.18 |
| KRLCLVCGDIASGYHYGVASCEACKAFFKRTIQGNIEYSCPATNECEITKRRRKSCQACRFMKCLKVLMLKEGVRLD | -0.749 ± 0.11 |
| KRLCLVCGDIASGYHYGVASCEACKAFFKRTIQGNIEYSCPATNECEITKRRRKSCQACRFMKCLKVAMLKEGVRLD | -0.777 ± 0.098 |
| KRLCLVCGDIASGYHYGVASCEACKAFFKRTIQGNIEYSCPATNECEITKRRRKSCQACRFMKCLKVKMLKEGVRLD | -0.454 ± 0.099 |
| KRLCLVCGDIASGYHYGVASCEACKAFFKRTIQGNIEYSCPATNECEITKRRRKSCQACRFMKCLKVNMLKEGVRLD | -0.753 ± 0.33 |
| KRLCLVCGDIASGYHYGVASCEACKAFFKRTIQGNIEYSCPATNECEITKRRRKSCQACRFMKCLKVQMLKEGVRLD | -0.944 ± 0.2 |
| KRLCLVCGDIASGYHYGVASCEACKAFFKRTIQGNIEYSCPATNECEITKRRRKSCQACRFMKCLKVMMLKEGVRLD | -0.851 ± 0.19 |
| KRLCLVCGDIASGYHYGVASCEACKAFFKRTIQGNIEYSCPATNECEITKRRRKSCQACRFMKCLKVGMKKEGVRLD | 0.13 ± 0.066 |
| KRLCLVCGDIASGYHYGVASCEACKAFFKRTIQGNIEYSCPATNECEITKRRRKSCQACRFMKCLKVGMCKEGVRLD | -0.098 ± 0.073 |
| KRLCLVCGDIASGYHYGVASCEACKAFFKRTIQGNIEYSCPATNECEITKRRRKSCQACRFMKCLKVGMGKEGVRLD | -0.084 ± 0.042 |
| KRLCLVCGDIASGYHYGVASCEACKAFFKRTIQGNIEYSCPATNECEITKRRRKSCQACRFMKCLKVGMPKEGVRLD | -0.044 ± 0.091 |

| Variant | abundance fitness |
| --- | --- |
| KRLCLVCGDIASGYHYGVASCEACKAFFKRTIQGNIEYSCPATNECEITKRRRKSCQACRFMKCLKVGMNKEGVRLD | 0.032 ± 0.085 |
| KRLCLVCGDIASGYHYGVASCEACKAFFKRTIQGNIEYSCPATNECEITKRRRKSCQACRFMKCLKVGMIKEGVRLD | 0.034 ± 0.095 |
| KRLCLVCGDIASGYHYGVASCEACKAFFKRTIQGNIEYSCPATNECEITKRRRKSCQACRFMKCLKVGMQKEGVRLD | -0.035 ± 0.085 |
| KRLCLVCGDIASGYHYGVASCEACKAFFKRTIQGNIEYSCPATNECEITKRRRKSCQACRFMKCLKVGMAKEGVRLD | -0.004 ± 0.056 |
| KRLCLVCGDIASGYHYGVASCEACKAFFKRTIQGNIEYSCPATNECEITKRRRKSCQACRFMKCLKVGMMKEGVRLD | -0.03 ± 0.08 |
| KRLCLVCGDIASGYHYGVASCEACKAFFKRTIQGNIEYSCPATNECEITKRRRKSCQACRFMKCLKVGMSKEGVRLD | 0.083 ± 0.052 |
| KRLCLVCGDIASGYHYGVASCEACKAFFKRTIQGNIEYSCPATNECEITKRRRKSCQACRFMKCLKVGMHKEGVRLD | -0.158 ± 0.15 |
| KRLCLVCGDIASGYHYGVASCEACKAFFKRTIQGNIEYSCPATNECEITKRRRKSCQACRFMKCLKVGMFKEGVRLD | -0.066 ± 0.073 |
| KRLCLVCGDIASGYHYGVASCEACKAFFKRTIQGNIEYSCPATNECEITKRRRKSCQACRFMKCLKVGMEKEGVRLD | 0.101 ± 0.051 |
| KRLCLVCGDIASGYHYGVASCEACKAFFKRTIQGNIEYSCPATNECEITKRRRKSCQACRFMKCLKVGMDKEGVRLD | 0.069 ± 0.087 |
| KRLCLVCGDIASGYHYGVASCEACKAFFKRTIQGNIEYSCPATNECEITKRRRKSCQACRFMKCLKVGMVKEGVRLD | 0.107 ± 0.046 |
| KRLCLVCGDIASGYHYGVASCEACKAFFKRTIQGNIEYSCPATNECEITKRRRKSCQACRFMKCLKVGMRKEGVRLD | 0.014 ± 0.043 |
| KRLCLVCGDIASGYHYGVASCEACKAFFKRTIQGNIEYSCPATNECEITKRRRKSCQACRFMKCLKVGMTKEGVRLD | 0.011 ± 0.062 |
| KRLCLVCGDIASGYHYGVASCEACKAFFKRTIQGNIEYSCPATNECEITKRRRKSCQACRFMKCLYVGMLKEGVRLD | -0.508 ± 0.19 |
| KRLCLVCGDIASGYHYGVASCEACKAFFKRTIQGNIEYSCPATNECEITKRRRKSCQACRFMKCLVVGMLKEGVRLD | -0.241 ± 0.059 |
| KRLCLVCGDIASGYHYGVASCEACKAFFKRTIQGNIEYSCPATNECEITKRRRKSCQACRFMKCLWVGMLKEGVRLD | -0.559 ± 0.1 |
| KRLCLVCGDIASGYHYGVASCEACKAFFKRTIQGNIEYSCPATNECEITKRRRKSCQACRFMKCLTVGMLKEGVRLD | 0.162 ± 0.052 |
